The series is described as follows: yeast display, Sf9 membrane polyspecificity reagent, FACS + sequencing; frameworks hold sequencing errors. The method in brief: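 In a synthetic yeast display library (Saccharomyces cerevisiae BJ5465), nanobody expression was induced with galactose for 36–48 hours. FACS gates were set low and high (top ~1%) using anti-HA fluorescence for expression and streptavidin fluorescence for binding of the Sf9 membrane reagent. Each polyreactivity label is drawn from the gate of origin.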
“QVQLVESGGGLVQAGGSLRISCAASGFTFSLNGMGWYRQAPGKEREMVAAIRSGGSTNYADSVKGRFTISLDNAKYTVYIQMNSLKPEDTAVYYCATDIHSVHNNRDKHDYDYLGQGTQVTVSS”: the “polyreactivity (PSR sort gate)” value was “low polyreactivity”.

As to “QVQLQESGGGLVQAGGSLRLSCAASDYIFPYKPKGWYRQAPGKEREFVATIATGGSTNYADSVKGRFTISRDNAKNTVYLQMNSLKPEDTAVYYCAVYGGPAGYLTYRGQGTQVTVSS”, the “polyreactivity (PSR sort gate)” value was “high polyreactivity”.

As to “QVQLVESGGGLFQAGGSLRLSCAPSGFIFPKNPMSWYRHAPGKERELVAAISQSGGSTYYADSVKGRFTISRDNAKNTVYLQMKSLKADDTAVYSCAARYYLPNWVGGGEYNYWGQGTQVTVST”, the “polyreactivity (PSR sort gate)” value is recorded as “high polyreactivity”.

Regarding “QVQLVESGGGLVQAGGSLRLSCAASGRIFWKYTMGWYRQAPGKERELVAAIRSGGGSTYYADSVKGRFTISRDNAKNTVYLQLNSLKPEDTAFYYCAAEPSQRYPWSGYDYWGQGTQVTVSS”, the “polyreactivity (PSR sort gate)” value is given as “low polyreactivity”.

As to “QVQLVESGGGLVQAGGSLRLSCAASGRTFGIYAMGWYRQAPGKERELVAAITGRGGSTHYADSVKGRFTISRDNAKNTVYLQMNSLKPEDTAVYYCNARWWVIRPYQRHDYWGQGTQVTVSS”, the “polyreactivity (PSR sort gate)” value is “low polyreactivity”.

Turning to “QVQLVESGGGLVQAGGSLRISCAASGSTSYNYVMGWYRQAPGKERELVAGITWSDDITYYADSVKGRFTISRDNAKNTVYLQMNSLKPEDTAVYYCAAEDRPLYWRFPDEMDYWGQGTQVTVSS”, the “polyreactivity (PSR sort gate)” value was “low polyreactivity”.

For “QVQLVESGGGLVQAGGSLRLSCAASGSIFLYNAMGWYRQAPGKERELVASISSGGITDYADSVKGRFTISRDNAKNTVYLQMNSLKPEDTAVYYCAATYSVYLDYAGGGPLYNHWGQGTQVTVSS”, the “polyreactivity (PSR sort gate)” value is reported as “low polyreactivity”.

For “QVQLVESGGGLVQAGGSLRLSCAASGYTIRGYVMGWYRQAPGKERELVAAISASGGRTYYADSVKGRFTISRDYATNTVYLLMNSLKPEDTAVYYCAADSSRTPLEFDYWGQGTQVTVSS”, the “polyreactivity (PSR sort gate)” value is given as “high polyreactivity”.

“QVQLVESGGGLVQAGGSLRLSCAASGSIFVPYAMGWYRQAPGKERELVASINWNGSSTYADSVKGRFTISRDNAKNSVYLQMNSLKPEDTAVYYCNADYNRNSVQFSLYDYWGQGTQVTVST”: the “polyreactivity (PSR sort gate)” value is recorded as “low polyreactivity”.

In the case of “QVQLVESGGGLVQAGGSLRLSCAASGRTFSVNDMGWYRQAPGKERELVAAISFSGGSTYYADSVKGRFTISRDNAKNSVYLQMNSLKPEDTEVYYCAAEAYASCFYVITGFGIYDYWGQGTQVTVSS”, the “polyreactivity (PSR sort gate)” value is “high polyreactivity”.

Consider “QVQLVESGGGLVQAGGSLRLSCAASGFTFSNYAMGWYRQAPGKERELVAAISFRTGRTYYADSVKGRFTISRDNAKNTVYLQMNSLKPEDTAVYYCAAVVQSSEPVEYDYWGQGTQVTVSS”, for which the “polyreactivity (PSR sort gate)” value was “high polyreactivity”.

Take “QVQLVESGGGLVQAGGSLRLICAASGRIFDSYTMGWYRQAPGKERELVAAISRGGGSTYYADSVKGRFTISRDNAKNTVYLQMNSLKPEDTAVFYCAASSYLNSRFKFDYWGQGTQVTVSS”: the “polyreactivity (PSR sort gate)” value was “low polyreactivity”.

With “QVQLVESGGGLVQAGGSLRLSCAASGFTFFDYVMGWYRQAPGKERELVAAISRNVGSTYYADSVKGRFTISRDNAKTTVYLQMNSLKPEDTAVYYCAAEPPPYEYDYWGQGTQVTVSS”, the “polyreactivity (PSR sort gate)” value is listed as “high polyreactivity”.

With “QVQLVESGGGLVQAGGSLRLSCAASGSIFRTYAMGWYRQAPGKEWELVAAISGSGSRTYYADSVKGRFTISRDNAKNTVYLQMNSLKPEDTAVYYCAAQTFAYKVFFLYDYWGQGTQVTVSS”, the “polyreactivity (PSR sort gate)” value is listed as “low polyreactivity”.

As for “QVQLVESGGGLVQAGGSLRLSCAASGSIFDYYAMGWYRQAPGKERELVATISGGGGTTYYADSVKGRFTISRDTAKNTVYLQMNSLKPEDTAVYYCAADSLGYNYWGQGTQVTVSS”, the “polyreactivity (PSR sort gate)” value was “low polyreactivity”.

For the sequence “QVQLVESGGGLVQAGGSLRLSCAASGRTFHYNAMGWYRQAPGKERELVAAISFNGGGTYYADSVKGRFTISRDNAKNTVYLQMNSLKPEDTAVYYCNVDAAGSNSHARHDSWGQGTQVTVSS”, the “polyreactivity (PSR sort gate)” value is reported as “low polyreactivity”.

For “QVQLVESGGGLVQAGGSLRLSCAASGGTFYYYAMGWYRQAPGKEREFVAAITWTGGRTYYADSVKGRFTISRDNAKNTVYLQMNSLKPEDTAVYYCAASDRYGGRDYWGQGTQVTVSS”, the “polyreactivity (PSR sort gate)” value is “high polyreactivity”.

“QVQLVESGGGLVQAGGSLRLSCAASGRTFYFNAMGWYRQAPGKERELVAAITFSGGSTNYADSVKGRFTISRDNAKNTVYLQMNSLKPEDTAVYYCAAPKYLGTDEYDYWGQGTQVTVSS”: the “polyreactivity (PSR sort gate)” value is “low polyreactivity”.

As for “QVQLVESGGGLVQAGGSLRLSCAASGLTFAGYAMGWYRQAPGKERELVAAISSGGRTNYADSVKGRFTISRDNAKNTVYLHMNSLKPADTAVYYCAARISTHAPHRRLTYEYWGQGTQVTVSS”, the “polyreactivity (PSR sort gate)” value was “low polyreactivity”.

“QVQHVESGGGLVHAGGSLRLSCAASGSTFRPYPRGWSRQAPGKERELVAAIRKIGGRTYYADSVKGRFTISRDNAKNTVYLQMNSLKPEDTAVYYCNKRIGGGVHAYNYWGQGTQVTVSS”: the “polyreactivity (PSR sort gate)” value was “low polyreactivity”.

“QVQLVESGGGLVQAGGSLRLSCAASGSTFYSYAMGWYRQAPGKERELVADIDWSGGSTYYADSVKGRFTISRDNAKNTVYLQMNSLKPEDTAVYYCNAERGATGYYVTGDDYWGQGTQVTVSS”: the “polyreactivity (PSR sort gate)” value was “low polyreactivity”.

Take “QVQLEDSGGGLVQAGGSLRLSCAASGRIFYAYAMGWYRPAPGKEREFVASISGSGGSTYYADSVKGRFTISRDNAKNTVYLQMNSLKPEDTAVYYCAKRYPFFSSGLSPYNYWGQGTQVTVSS”: the “polyreactivity (PSR sort gate)” value is given as “high polyreactivity”.

Regarding “QVQLVESGGGLVQAGGSLRLSCAASGFTFGYNDMGWYRQAPGKERELVAGIRSGDDTNYADSVKGRFTISRDNAKNTVYLQMYSLKPEDTAVYYCAADRTTYTYYLPYDYWGQGTQVTVSS”, the “polyreactivity (PSR sort gate)” value was “low polyreactivity”.

Consider “QVQLVESGGGLVQAGGSLRLSCSASGITFFTYAMGWYRQAPGKERELVAAISGSGGSTYYADSVKGRFTISRDNAKNTVYLQMNSLKPEDTADYYCAAEYTYASPYDYWGQGTQVTVSS”, for which the “polyreactivity (PSR sort gate)” value was “low polyreactivity”.

Consider “QVHLVESGGGLVQAGGSLSFSCAASGSNFTFNTMVWYRQAPGKEREKVATISSGGRTYYADSVKGRFTISRDNAKNTVYLQMNSLKPEDTPVFYCNKGYYGYTYVEYNYWGQGTPVTVSS”, for which the “polyreactivity (PSR sort gate)” value was “low polyreactivity”.

With “QVQLVESGGGLVQAGGSLRLSCAASGYIFARYAMGWYRQAPGKERELVASISRRGTSTYYADSVKGRFTISRDNAKNTDYLQMNSLKPEDTAVYYCNKEYYIYRTGTIGERSDMGYWGQGTQVTVSS”, the “polyreactivity (PSR sort gate)” value is “high polyreactivity”.

On to “QVQLVESGGGLVLAGGSLRLSCAASGSTFRGNAMGWYRQAPGKERELVAAITRRGGSTYYADSVKGRFTISRDNAKNTVYLQMNSLKPEDTAVYYCAKVTTYVSAWQGNGYWGQGTQVTVSS”, for which the “polyreactivity (PSR sort gate)” value is listed as “high polyreactivity”.

Consider “QVQLVESGGGLVQAGGSLRLSCAASGSTFRSYNMGWYRQAPGKERELVADINGTGGSTYYADSVKGRFTISRDNAKNTVYLQMNSLKPEDTAVYYCAADGYFRTVTSGWALRMGYWGQGTQVTVSS”, for which the “polyreactivity (PSR sort gate)” value is recorded as “high polyreactivity”.

For the sequence “QVQLVESGGGLVQAGGSLRLSCAASGRTFKYNAMGWYRPAPGKERELVAAISSTGSTNYADSVKGRFTISRDNAKNTVYLQMNSLKPEDTAVYYCAASYFFVQWGWYYYWGQGTQVTVSS”, the “polyreactivity (PSR sort gate)” value is “low polyreactivity”.

In the case of “QVQLVESGGGLVQAGCSLRLSCASSGLTFSFYAMGWYRQAPGKERELVAAISKGGGSTSYADSVKGRFTISRDNAKNTVYLQMNSLKPEDTAVYYCAARYYYSRSRLYYYWGQVTQVTVSS”, the “polyreactivity (PSR sort gate)” value was “high polyreactivity”.

On to “QVQLVESGGGLVQAGGSLRLSCAASGIIFTANVMGWYRHAPGKERELDAVISLSGGITFYADSVKGRFTISRDNAKNTVYLQMNSLKPEDTAVYYCAAEPWYSWKTEEDYWGQGTQVTVTS”, for which the “polyreactivity (PSR sort gate)” value is recorded as “low polyreactivity”.

For “QVQLVESVGGLVQAGGSLRLSCAASGLTSGLNAMGWYRQAPGKERELVATIRTNGGSTYYADSVKGRFTISRDNAKNTVYLQMNSLKPEDTAVYYCAADSVLDRPVLYLWPWYLGDYWGQGTQVTVSS”, the “polyreactivity (PSR sort gate)” value is reported as “low polyreactivity”.

For the sequence “QVQLVESGGGLVQAGGSLRLSCAASGRTLSWYAMGWYRQAPGKEREFVAAITSSGASTYYADSVKGRFTISRDNAKNTVYLQMNSLKPEDTAVYYCAAKMRGYPRRRYDYCGQGTQVTVSS”, the “polyreactivity (PSR sort gate)” value was “high polyreactivity”.

For the sequence “QVQLVESGGGLVQAGGSLRLSCAASGRTFRLYAMGWYRQAPGKERELVAAISARGSSTYYADSVKGRFTISRDNAKNTVYLQMNSLKPEDTAVYYCAAKRSYPYGSGYWGQGTQVTVSS”, the “polyreactivity (PSR sort gate)” value was “high polyreactivity”.

Consider “QVQLVESGGGLVQAGGSLRLSCAASGSTFNHYTMGWYRQAPGKERELVAAISSRGGGTYYADSVKGRFTISRDNAKNTVYLQMNSLKPEDTAVYYCAALISSGIRHSRDYWGQGTQVTVSS”, for which the “polyreactivity (PSR sort gate)” value is recorded as “high polyreactivity”.

With “QVQLVESGGGLVQAGCSLRLSCAASGRTFDSYTMGWYRQAPGKERELVAAIRSSGGRTYADSVKGRFTISRDNAKNTVYLQMNSLKPEDTAVYYCDADRRGSHYYRYKYGYWGQGTQVTVSS”, the “polyreactivity (PSR sort gate)” value is listed as “high polyreactivity”.

Regarding “QVQLVESGGGLVQAGGSLRLSCAASGFTFYNNAMGWYRQAPGKERELVAVITSNGGRTYYADSVKGRFTISRDNAKITVYLQMNSLKPEDTAVYYCAADYWGLGTQVTVSS”, the “polyreactivity (PSR sort gate)” value is listed as “low polyreactivity”.

On to “QVQLVESGGGLVQAGGILRLSCAASGFIFAKYAMVWYRQAPGKERELVAAITSGGSTNYADSVKGRFTISRDNAKNTVYLQMNSLKPEDTAVYYCNRGFDWWYRYRHYDYWGQGTQVTVSS”, for which the “polyreactivity (PSR sort gate)” value is “low polyreactivity”.

Consider “QVQLVESGGCLVQAGGSLSLSCAASGSIFGWYVMGWYRQAPGKERELGAAISSVGSTYYADSVKGRFTISRDNAKNTVYLQMNSLKPEDTAVYYCAKLRYPYLFSDDSEYWGQGTQVTVSS”, for which the “polyreactivity (PSR sort gate)” value was “low polyreactivity”.

On to “QVHLVESGGGLVQAGGSLHLSCAPSGRTFGYYAKGGYRQAPGKEREFVAAISHSAGSTSYADSVKGRFTLSRDNAKNTVYLQMNSLKPEDTAVYYCATPSQLHPYEYWGQGSQVTVSS”, for which the “polyreactivity (PSR sort gate)” value is listed as “low polyreactivity”.

Values taken from the nanobody polyreactivity screen of Harvey et al. (2022).
